Experimental data published in paper PMC4140821 (2014).
One block for each binder: values may come before it.

How the values were obtained:
Assay in all cases: ITC
[1] = molecular target: CSN5^ΔC,R106T (human, UniProt Q92905 1-257, R106T)
[2] = molecular target: CSN6^ΔC,H44A (human, UniProt Q7L5N1 31-211, H44A)
[3] = molecular target: CSN6^ΔC,V115E (human, UniProt Q7L5N1 31-211, V115E)

CSN5^ΔC,R106T, sequence (Q92905 1-257 R106T): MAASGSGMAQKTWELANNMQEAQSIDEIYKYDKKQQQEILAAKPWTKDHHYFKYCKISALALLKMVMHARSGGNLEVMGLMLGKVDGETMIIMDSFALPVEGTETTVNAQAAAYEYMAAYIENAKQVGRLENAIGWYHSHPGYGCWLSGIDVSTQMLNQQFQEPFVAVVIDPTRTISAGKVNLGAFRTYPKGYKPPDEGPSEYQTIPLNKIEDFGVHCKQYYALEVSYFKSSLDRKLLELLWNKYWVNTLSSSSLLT

- Kd [1]: 5.8 µM
B1: CSN6^ΔC (human CSN6 31–211 fragment) (domain or fragment)
chain: MACGVTGSVSVALHPLVILNISDHWIRMRSQEGRPVQVIGALIGKQEGRNIEVMNSFELLSHTVEEKIIIDKEYYYTKEEQFKQVFKELEFLGWYTTGGPPDPSDIHVHKQVCEIIESPLFLKLNPMTKHTDLPVSVFESVIDIINGEATMLFAELTYTLATEEAERIGVDHVARMTATGS

- Kd [2]: 9.2 µM
- Kd [3]: 29 µM
B2: CSN5^ΔC,WT (human CSN5 1–257 fragment) (domain or fragment)
chain: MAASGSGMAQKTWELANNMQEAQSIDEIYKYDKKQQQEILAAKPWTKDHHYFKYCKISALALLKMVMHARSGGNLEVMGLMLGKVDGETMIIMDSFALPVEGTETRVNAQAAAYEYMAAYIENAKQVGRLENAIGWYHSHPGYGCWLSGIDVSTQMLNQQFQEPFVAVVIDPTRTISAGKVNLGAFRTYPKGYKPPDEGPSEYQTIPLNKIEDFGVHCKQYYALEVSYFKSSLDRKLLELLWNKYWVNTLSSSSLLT
